Measured values from patent US6399759.

Key:
Experiment in all cases: cell-based or functional assay
[1] = biological target: Soli E1 (Solenopsis invicta)
[2] = biological target: T1, Soli E2 (Solenopsis invicta)
T1 sequence: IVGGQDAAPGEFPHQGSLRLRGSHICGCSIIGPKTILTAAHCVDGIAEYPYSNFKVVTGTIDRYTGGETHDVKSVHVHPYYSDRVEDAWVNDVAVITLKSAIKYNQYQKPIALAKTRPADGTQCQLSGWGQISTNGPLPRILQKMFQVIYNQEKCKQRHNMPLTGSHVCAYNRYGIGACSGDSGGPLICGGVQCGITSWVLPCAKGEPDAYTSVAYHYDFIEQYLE

[3] = biological target: Soli C1 (Solenopsis invicta)
[4] = biological target: Soli C2 (Solenopsis invicta)
Soli C2 (Solenopsis invicta), sequence (main, as listed by the source): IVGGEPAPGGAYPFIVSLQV

Soli C1 (Solenopsis invicta), sequence (Q7SIG2 other isoform, or with tags, fused parts or gaps): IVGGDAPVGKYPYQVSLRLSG
Soli E1 (Solenopsis invicta), sequence (main, as listed by the source): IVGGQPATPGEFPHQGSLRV

B1: Soy Bean Trypsin Inhibitor I-S (protein, soybean, UniProt P01070 25-205, looked up)
chain: DFVLDNEGNPLENGGTYYILSDITAFGGIRAAPTGNERCPLTVVQSRNELDKGIGTIISSPYRIRFIAEGHPLSLKFDSFAVIMLCVGIPTEWSVVEDLPEGPAVKIGENKDAMDGWFRLERVSDDEFNNYKLVFCPQQAEDDKCGDIGISIDHDDGTRRLVVSKNKPLVVQFQKLDKESL
IC50 [1]: 4.22 nM | IC50 [2]: 5.58 nM | IC50 [3]: 37 nM | IC50 [4]: 1.41 nM
